Our source for the Kd values is publication PMC10866649 (2024).

Sequences and labels used below:
B1: Human IgG1 Fc bearing the Abdeg mutations (Fc^Abdeg, efgartigimod) (domain or fragment)
chain: DKTHTCPPCPAPELLGGPSVFLFPPKPKDTLYITREPEVTCVVVDVSHEDPEVKFNWYVDGVEVHNAKTKPREEQYNSTYRVVSVLTVLHQDWLNGKEYKCKVSNKALPAPIEKTISKAKGQPREPQVYTLPPSRDELTKNQVSLTCLVKGFYPSDIAVEWESNGQPENNYKTTPPVLDSDGSFFLYSKLTVDKSRWQQGNVFSCSVMHEALKFHYTQKSLSLSPGK
B2: Mouse neonatal Fc receptor (mFcRn) (receptor)
chain 1: SETRPPLMYHLTAVSNPSTGLPSFWATGWLGPQQYLTYNSLRQEADPCGAWMWENQVSWYWEKETTDLKSKEQLFLEALKTLEKILNGTYTLQGLLGCELASDNSSVPTAVFALNGEEFMKFNPRIGNWTGEWPETEIVANLWMKQPDAARKESEFLLNSCPERLLGHLERGRRNLEWKEPPSMRLKARPGNSGSSVLTCAAFSFYPPELKFRFLRNGLASGSGNCSTGPNGDGSFHAWSLLEVKRGDEHHYQCQVEHEGLAQPLTVDLDSSARSS
chain 2: IQKTPQIQVYSRHPPENGKPNILNCYVTQFHPPHIEIQMLKNGKKIPKVEMSDMSFSKDWSFYILAHTEFTPTETDTYACRVKHASMAEPKTVYWDRDM

Experiment [1] addresses B2. Kind of experiment: SPR.
Experiment [2] addresses Wild-type human IgG1 Fc (Fc^WT) (human, N-linked glycan at N297, predominantly fucosylated agalactosylated or monogalactosylated). Kind of experiment: SPR.

As to B1, the Kd in experiment [1] amounted to 0.27 nM.

As for B2, the Kd in experiment [2] was determined as 70 nM.
